Source: the supplement of paper PMC9170038

Tested on: MS2 coat protein
Assay: apparent KD of MS2 coat protein; designed switch direction (-1 OFF switch, 1 ON switch): 1; higher = weaker reporter binding
Outline: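 The apparent KD reported per design is the median over clusters of curve fits to normalised cluster fluorescence. The RNA switches were transcribed on Illumina chips by stalled E. coli RNA polymerase. SNAP-549-labelled MS2 coat protein was titrated from 0.7 or 1.5 nM, doubling up to 3 µM, in Tris-HCl pH 7.5 buffer containing KCl, MgCl2, BSA, DTT, tRNA and Tween-20, with no input, 200 uM small-molecule ligand, or an oligonucleotide input.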

[1] = input ligand: microRNA oligo, concentration not stated
[2] = Eterna round: R95, input ligand: FMN 200 uM
[3] = Eterna round: R95, input ligand: microRNA oligo, concentration not stated
[4] = Eterna round: R95, input ligand: none

AUUAUUUCUGCAGGAUAUGAUUAACAUGAGGAUCACCCAUGUGGUGUUGUGAGUAAGGAGAGUGAUCAGAAGGGCAUUUUUUUU [JMF's solution 62] (Eterna round: R96, puzzle: Same State NG 2)
apparent KD of MS2 coat protein (input ligand: FMN 200 uM): 630 nM | apparent KD of MS2 coat protein [1]: 211 nM | apparent KD of MS2 coat protein (input ligand: none): 313 nM

AGCUAUUACGAAGGAUAUUGUGACAUGAGGAUCACCCAUGUUUUCAUGAUUUAUUGUGAUCACGUCGAGAAGGUUGUACUAACA [SameState NG2 #29] (Eterna round: R96, puzzle: Same State NG 2)
apparent KD of MS2 coat protein (input ligand: FMN 200 uM): 59.2 nM | apparent KD of MS2 coat protein [1]: 50.8 nM | apparent KD of MS2 coat protein (input ligand: none): 51.8 nM

AGUCCAGCCAGAGCUGGACAAAAGCAUGUACAUGAGGAUCACCCAUGUUCAUGUACAAGCUUUUUGCUCGUCAAAAG [Mat - hsa-mir-208a - Mod of JL - 69] (puzzle: Sensor for hsa-mir-208a)
apparent KD of MS2 coat protein [2]: 304 nM | apparent KD of MS2 coat protein [3]: 17.7 nM | apparent KD of MS2 coat protein [4]: 233 nM

UUAACAUGAGGAUCACCCAUGUAUGCGUAGCUUGCAUUUUGACAGGAUAUUGAAUAUCUAUAUAGCAAGAAGGGUCGUUAGUCU [JR_SSNG3_Sub008] (Eterna round: R96, puzzle: Same State NG 3)
apparent KD of MS2 coat protein (input ligand: FMN 200 uM): 91.8 nM | apparent KD of MS2 coat protein [1]: 53.3 nM | apparent KD of MS2 coat protein (input ligand: none): 94.9 nM

UAAAAGAAGUUAGGAUAUGGUGAAGUACUGUGGCCAGAAGGGACGACUAACCGAGAAAGACAUGAGGAUCACCCAUGUCCACAG [Eternabot solution 20] (Eterna round: R96, puzzle: Same State NG 1)
apparent KD of MS2 coat protein (input ligand: FMN 200 uM): 86.5 nM | apparent KD of MS2 coat protein [1]: 57 nM | apparent KD of MS2 coat protein (input ligand: none): 74.5 nM

UGUUGUAUUACAGGAUAUCUAGUAUUUGUAUUUAGAGAAGGGUAUUCACAUGAGGAUCACCCAUGUAUAUACGAGGAAGUUGUG [JMF's solution 42] (Eterna round: R96, puzzle: Same State NG 1)
apparent KD of MS2 coat protein (input ligand: FMN 200 uM): 53.7 nM | apparent KD of MS2 coat protein [1]: 35.4 nM | apparent KD of MS2 coat protein (input ligand: none): 48.3 nM

AUUAUACAUGAGGAUCACCCAUGUCAAUGUAGUCGAGGAUAUGGGCAGCUGUGAGGCGUACUAGAAGGCGAAGAGA [Mat - Same State 1 - Mod of JL - D9] (puzzle: Same State 1)
apparent KD of MS2 coat protein [2]: 59.9 nM | apparent KD of MS2 coat protein [3]: 192 nM | apparent KD of MS2 coat protein [4]: 222 nM

CGCGAACAGGCAGGAUAUAUAGAGCCAAAUAUUGUAGAAGGGCCACGUGCGGGAAGAGAACACAUGAGGAUCACCCAUGUUCGA [Eternabot solution 5] (Eterna round: R96, puzzle: Same State NG 1)
apparent KD of MS2 coat protein (input ligand: FMN 200 uM): 27.4 nM | apparent KD of MS2 coat protein [1]: 27.9 nM | apparent KD of MS2 coat protein (input ligand: none): 30.7 nM

AGUCCAGCAAGAGCUGGACAAAAGCAUGUACAUGAGGAUCACCCAUGUCAUGUACAAGCUUUUUGCUCGUCUUAAAA [Mat - hsa-mir-208a - Mod of JL - D3] (puzzle: Sensor for hsa-mir-208a)
apparent KD of MS2 coat protein [2]: 456 nM | apparent KD of MS2 coat protein [3]: 16 nM | apparent KD of MS2 coat protein [4]: 729 nM

CCGGCAAGUAUAGGAUAUCCCGCAACAGAAACGGGAGAAGGGUGCCAAACAUGAGGAUCACCCAUGUACACCGGAAAUAAAUAA [Lazaorra] (Eterna round: R96, puzzle: Same State NG 1)
apparent KD of MS2 coat protein (input ligand: FMN 200 uM): 54.9 nM | apparent KD of MS2 coat protein [1]: 56.4 nM | apparent KD of MS2 coat protein (input ligand: none): 46.9 nM

AUAAAAGAAAGAAACACAUGAGGAUCACCCAUGUAACGACUACAGGAUAUGCUGCACAGUCCAAAGCAGAAGGGUGGUCAAAAC [Qulaesed] (Eterna round: R96, puzzle: Same State NG 3)
apparent KD of MS2 coat protein (input ligand: FMN 200 uM): 280 nM | apparent KD of MS2 coat protein [1]: 111 nM | apparent KD of MS2 coat protein (input ligand: none): 102 nM

GGUGGGUUGCUGCCGGCACAUGAGGAUCACCCAUGUUUUGGGAAGGAUAUGGUCCCUCUUUGGUGCCAGAAGGUCCCGUUGGUC [salish99_SSNG3_r04_715] (Eterna round: R96, puzzle: Same State NG 3)
apparent KD of MS2 coat protein (input ligand: FMN 200 uM): 232 nM | apparent KD of MS2 coat protein [1]: 75.3 nM | apparent KD of MS2 coat protein (input ligand: none): 165 nM

GCGGAACCUAACAUGAGGAUCACCCAUGUUCCGGAAACGGCACAGGAUAUCUGUCCGAAAAGGUCAGAGAAGGGUGAAAACCGC [Fiskers NG3ss - 95] (Eterna round: R96, puzzle: Same State NG 3)
apparent KD of MS2 coat protein (input ligand: FMN 200 uM): 131 nM | apparent KD of MS2 coat protein [1]: 307 nM | apparent KD of MS2 coat protein (input ligand: none): 390 nM

UACUUAGUGGUAGGAUAUGUAGGAUAUGGCGAGAGCUAAGCUUGGAAGUCACUUCAGCCAGAAGGACAGAAGGACCACUCUCUC [pwkr ssNG2 2FMN + F9.12] (Eterna round: R96, puzzle: Same State NG 2)
apparent KD of MS2 coat protein (input ligand: FMN 200 uM): 98 nM | apparent KD of MS2 coat protein [1]: 17.4 nM | apparent KD of MS2 coat protein (input ligand: none): 97.1 nM

AGCCGAAGCGCAGGAUAUACAUGCACACAUGAGGAUCACCCAUGUGGCAACACGUGGUAGUGAUUGUAGAAGGGUGCUCGGCGC [Omei SS(NG)2 Cv16] (Eterna round: R96, puzzle: Same State NG 2)
apparent KD of MS2 coat protein (input ligand: FMN 200 uM): 60.1 nM | apparent KD of MS2 coat protein [1]: 34.4 nM | apparent KD of MS2 coat protein (input ligand: none): 51 nM
